These results are taken from paper PMC5377324.

Common to all, as to experiment: ITC
On the technique in general: Isothermal titration calorimetry measures the heat released or taken up as one component is titrated into another.

The target of assay [1] is Atx3_(22Q)-IIC (C-terminal fragment, residues 221-373, of isoform-II Atx3, 22Q).
In assay [2] the target is Atx3_(6Q)-IIC (C-terminal fragment, residues 221-373, of isoform-II Atx3, polyQ truncated to 6Q).
Assay [3] addresses Atx3_(46Q)-IIC (C-terminal fragment, residues 221-373, of isoform-II Atx3, polyQ expanded to 46Q).

What is called Kd is the equilibrium constant for the complex coming apart.

Regarding “K48-diUb (Lys48-linked di-ubiquitin) (from UniProt P0CG48 1-76) (complex)”, the Kd in assay [1], in assay [2] and in assay [3] was 50 µM in each case.
Regarding “P97N (N-terminal domain of P97, residues 1-213) (from UniProt P55072 1-213) (domain or fragment)”, the Kd in assay [1], in assay [2] and in assay [3] was 10 µM throughout.
